The text below walks through data of the RNAGym collection of RNA variant scans (doi:10.7554/elife.80360).

B1: HDV Ribozyme (parent)
chain: GGCCGGCAUGGUCCCAGCCUCCUCGCUGGCGCCGGCUGGGCAACAUUCCGAGGGGACCGUCCCCUCGGUAAUGGCGAAUGGGACCCA

This series covers variants of B1. Briefly: self-cleavage, relative activity (ratio to wild type); higher = more cleavage; co-transcriptional.
For the variant GGCCGGCAUGGUCCCAGCCUCUUCGCUGGCGCCGGCUGGGCAACAUUCCGAGGGGACCGUCCCCUCGGUAAUGGCGAAUGUGACCCA [C22U G81U], the self-cleavage came to 0.04. For GGCCGGCAUGGUCCCAGCCUCUUCGCUGGCGCCGGCUGGGCAACAUUCCGAGGGGACCGUCCCCUCGUUAAUGGCGAAUGGGACCCA [C22U G68U] the value was 0.572.

Turning to GGCCGGCAUGGUCCCAGCCUCUUCGCUGGCGCCGGCUGGGCAACAUUCCGAGGGGACCGUCCCCUCGCUAAUGGCGAAUGGGACCCA [C22U G68C], the self-cleavage worked out at 0.345. The same measure for GGCCGGCAUGGUCCCAGCCUCUUCGCUGGCGCCGGCUGGGCAACAUUCCGAGGGGACCGUCGCCUCGGUAAUGGCGAAUGGGACCCA [C22U C62G]: 0.431; for GGCCGGCAUGGUCCCAGCCUCUUCGCUGGCGCCGGCUGGGCAACAUUCCGAGGGGACCGUCACCUCGGUAAUGGCGAAUGGGACCCA [C22U C62A]: 0.623; for GGCCGGCAUGGUCCCAGCCUCUUCGCUGGCGCCGGCUGGGCAACAUUCCGAGGGGACCGUCCCCUCGGUAAUGGCGAAUGGGACUCA [C22U C85U]: 0.577.

On to GGCCGGCAUGGUCCCAGCCUCUUCGCUGGCGCCGGCUGGGCAACAUUCCGAGGGGACCGUCCCCUCGGUAAUGGCGAAAGGGACCCA [C22U U79A], for which the self-cleavage was determined as 0.0923.

As to GGCCGGCAUGGUCCCAGCCUCUUCGCUGGCGCCGGCUGGGCAACAUUCCGAGGGGACCGUCCCCUCGGUAAUGACGAAUGGGACCCA [C22U G74A], the self-cleavage came to 0.113. The same measure for GGCCGGCAUGGUCCCAGCCUCUUCGCUGGCGCCGGCUGGGGAACAUUCCGAGGGGACCGUCCCCUCGGUAAUGGCGAAUGGGACCCA [C22U C41G]: 0.554. For GGCCGGCAUGGUCCCAGCCUCUUCGCUGGCGCCGGCUGGGUAACAUUCCGAGGGGACCGUCCCCUCGGUAAUGGCGAAUGGGACCCA [C22U C41U] the value was 0.656; for GGCCGGCAUGGUCCCAGCCUCUUCGCUGGCGCCGGCUGGGCAACAUUCCGAGGGGACCGUCCCCUCGGCAAUGGCGAAUGGGACCCA [C22U U69C], 0.914; for GGCCGGCAUGGUCCCAGCCUCUUCGCUGGCGCCGGCUGGGCAACAUUCCGAGGGGACCGUCCCCUCGGGAAUGGCGAAUGGGACCCA [C22U U69G], 0.759. For GGCCGGCAUGGUCCCAGCCUCUUCGCUGGCGCCGGCUGGGCAACAUUCCGAGGGGACCGUCCCCUCGGAAAUGGCGAAUGGGACCCA [C22U U69A] the value was 0.554; for GGCCGGCAUGGUCCCAGCCUCUUCGCUGGCGCCGGCUGGGCAACAUUCCUAGGGGACCGUCCCCUCGGUAAUGGCGAAUGGGACCCA [C22U G50U], 0.521. On to GGCCGGCAUGGUCCCAGCCUCCACGCUGGCGCCGGCUGGGCGACAUUCCGAGGGGACCGUCCCCUCGGUAAUGGCGAAUGGGACCCA [U23A A42G], for which the self-cleavage is 0.499.

GGCCGGCAUGGUCCCAGCCUCUUCGCUGGCGCCGGCUGGGCAACAUUACGAGGGGACCGUCCCCUCGGUAAUGGCGAAUGGGACCCA [C22U C48A]: the self-cleavage amounted to 0.815. For GGCCGGCAUGGUCCCAGCCUCUUCGCUGGCGCCGGCUGAGCAACAUUCCGAGGGGACCGUCCCCUCGGUAAUGGCGAAUGGGACCCA [C22U G39A] the value was 0.185. For GGCCGGCAUGGUCCCAGCCUCUUCGCUGGCGCCGGCUGGGCAACAUUCCGAGGGGACCGUCCCCUCGGUAAUGGCGAAUGGAACCCA [C22U G82A] the value was 0.101; for GGCCGGCAUGGUCCCAGCCUCUUCGCUGGCGCCAGCUGGGCAACAUUCCGAGGGGACCGUCCCCUCGGUAAUGGCGAAUGGGACCCA [C22U G34A], 0.0468; for GGCCGGCAUGGUCCCAGCCUCUUCGCUGGCGCCCGCUGGGCAACAUUCCGAGGGGACCGUCCCCUCGGUAAUGGCGAAUGGGACCCA [C22U G34C], 0.0852. For GGCCGGCAUGGUCCCAGCCUCUUCGCUGGCGCCGGCUGGGCAACAUUCCGAGGGGAUCGUCCCCUCGGUAAUGGCGAAUGGGACCCA [C22U C57U] the value was 0.817; for GGCCGGCAUGGUCCCAGCCUCUUCGCUGGCGCCGGCUGGGCAACAUUCCGAGGGGACCGUCCCCUAGGUAAUGGCGAAUGGGACCCA [C22U C66A], 0.758; for GGCCGGCAUGGUCCCAGCCUCUUCGCUGGCGCCGGCUGGGCAAUAUUCCGAGGGGACCGUCCCCUCGGUAAUGGCGAAUGGGACCCA [C22U C44U], 0.249. For the variant GGCCGGCAUGGUCCCAGCCUCUUCGCUGGCCCCGGCUGGGCAACAUUCCGAGGGGACCGUCCCCUCGGUAAUGGCGAAUGGGACCCA [C22U G31C], the self-cleavage was 0. For GGCCGGCAUGGUCCCAGCCUCUUCGCUGGCUCCGGCUGGGCAACAUUCCGAGGGGACCGUCCCCUCGGUAAUGGCGAAUGGGACCCA [C22U G31U] the value was 0.0817; for GGCCGGCAUGGUCCCAGCCUCUGCGCUGGCGCCGGCUGGGCAACAUUCCGAGGGGACCGUCCCCUCGGUAAUGGCGAAUGGGACCCA [C22U U23G], 0.246; for GGCCGGCAUGGUCCCAGCCUCUACGCUGGCGCCGGCUGGGCAACAUUCCGAGGGGACCGUCCCCUCGGUAAUGGCGAAUGGGACCCA [C22U U23A], 0.845.

Regarding GGCCGGCAUGGUCCCAGCCUCUUCGCUGGCGCCGGCUGGGCAACAUACCGAGGGGACCGUCCCCUCGGUAAUGGCGAAUGGGACCCA [C22U U47A], the self-cleavage was found to be 0.584.

GGCCGGCAUGGUCCCAGCCUCUUCGCUGGCGCCGGCUGGGCAACAUCCCGAGGGGACCGUCCCCUCGGUAAUGGCGAAUGGGACCCA [C22U U47C]: the self-cleavage was 0.424. For GGCCGGCAUGGUCCCAGCCUCUUCGCUGGCGCCGGCUGGGCAACAUUCCGAGGGGACGGUCCCCUCGGUAAUGGCGAAUGGGACCCA [C22U C58G] the value was 0.511; for GGCCGGCAUGGUCCCAGCCUCUUCGCUGGCGCCGGCUGGGCAACAUUCCGAGGGGACCGUCCACUCGGUAAUGGCGAAUGGGACCCA [C22U C63A], 0.697. For GGCCGGCAUGGUCCCAGCCUCUUCGCUGCCGCCGGCUGGGCAACAUUCCGAGGGGACCGUCCCCUCGGUAAUGGCGAAUGGGACCCA [C22U G29C] the value was 0.0405.
